{"source": "paper PMC6985235", "about": "(2020)", "biological_target": "His-TvCyP1 (Trichomonas vaginalis, UniProt A2DT06 1-173)", "assay": "ITC; 25°C"}
{"binder": "His-Myb3^53–180 (domain or fragment) KGPFTEAEDDLIREYVKENGPQNWPRITSFLPNRSPKQCRERWFNHLDPAVVKHAWTPEEDETIFRNYLKLGSKWSVIAKLIPGRTDNAIKNRWNSSISKRISTNSNHKEILLPDRSKKRKAADVPKK", "values": [{"measurement": "Kd", "value": 2.04, "unit": "mM"}]}
